Experiment [1] concerns the target T1, human AF9 YEATS domain (residues 1–138) (Homo sapiens, UniProt P42568).
T1 construct: containing the cloned AF9 YEATS gene (amino acids 1–138) with an N-terminal 6xHis tag; 6xHis (N); made in house; host or cells: E. coli Rosetta 2(DE3)pLysS
T1 sequence (P42568 1-138): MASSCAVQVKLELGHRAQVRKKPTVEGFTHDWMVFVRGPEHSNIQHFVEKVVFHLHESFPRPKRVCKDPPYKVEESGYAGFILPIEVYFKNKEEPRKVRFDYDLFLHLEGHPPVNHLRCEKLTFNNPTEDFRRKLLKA
The experiment in a line: ITC binding assay with AF9 YEATS domain. The note with it: MicroCal PEAQ-ITC, 50 mM NaH2PO4, 500 mM NaCl, 2 mM EDTA, 2 mM β-ME, H3 peptides 1.1–2.7 mM titrated into AF9 YEATS 94–205 μM, One Set of Sites model, n = 3, errors as standard error (SE).
Description: The plasmid was transformed into Rosetta 2(DE3)pLysS E. coli cells (Novagen, Darmstadt, Germany) by the heat-shock method. Transformed cells were cultivated at 37 °C in TB medium supplemented with 50 μg/mL kanamycin and 35 μg/mL chloramphenicol. The cultivation continued until the culture’s OD600 reached 1.5. Then the culture was cooled down to room temperature (RT), and the protein expression was induced by adding isopropyl β-d-1-thiogalactopyranoside (IPTG) at a final concentration of 0.3 mM. The cultivation was continued for 18 h at RT. After the protein expression was completed, the cells were harvested by centrifuging the culture at 6500 rpm at 4 °C for 15 min. The pellets were then resuspended in cell lysis buffer containing 50 mM Tris, 500 mM NaCl, 30 mM imidazole, at pH 7.4, 1 mM phenylmethylsulfonyl fluoride (PMSF), 2 mM β-mercaptaethanol (β-ME), and 20 μg/mL DNase I. Subsequently, the cells were lysed using the One Shot Cell Disrupter (Constant Systems LTD, Daventry, UK), and the cell debris was settled down by centrifuging the lysate at 19500 rpm at 4 °C for 20 min. […]
ITC experiments were performed using a MicroCal PEAQ-ITC instrument (Malvern Panalytical, Malvern, UK). […] The concentrations of all histone peptides and proteins were measured by UV analysis on a Thermo-Fisher Nanodrop spectrophotometer in buffer using λmax at 215 nm and 280 nm, respectively. […]

Experiment [2] deals with T2, recombinant human AF9 YEATS domain (residues 1–138) (human, UniProt P42568 1-138).
T2 construct: AF9 (MLLT3), human, YEATS domain, amino acids 1-138, in pET28b(+); Plasmid was a gift from Prof; No step that removes the tag is described; the final SEC product is called 6xHis AF9 YEATS, so the tag was probably still on in ITC; also called 6xHis-AF9 YEATS; source: E. coli Rosetta 2(DE3)pLysS, purified (HisTrap Ni-NTA, Superdex 75 SEC)
T2 sequence (looked up): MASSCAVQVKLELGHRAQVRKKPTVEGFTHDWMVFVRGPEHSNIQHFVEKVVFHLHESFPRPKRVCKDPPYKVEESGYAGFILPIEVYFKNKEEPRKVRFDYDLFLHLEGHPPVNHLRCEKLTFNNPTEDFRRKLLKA
The experiment in a line: ITC; H3 peptides (1.1–2.7 mM) titrated into AF9 YEATS (94–205 μM), 19 injections; 50 mM NaH2PO4, 500 mM NaCl, 2 mM EDTA, 2 mM β-ME; One Set of Sites model; triplicates. The note with it: both partners purified. Background: In ITC the heat of successive injections is recorded.

Starred links: 1 amine or outer side, 2 acyl side, 3 side chain; linkers in the order of their positions; H or OH if unused. Non-standard residues stand in square brackets, D forms with d. No end group written: not given here. Kmea = methacryllysine, C=C(C)C(=O)NCCCC[C@H](N[*:1])C(=O)[*:2]; Kcr = crotonyllysine, C/C=C/C(=O)NCCCC[C@H](N[*:1])C(=O)[*:2]

On to `C/C=C/C(=O)NCCCC[C@H](NC(=O)[C@H](CCCNC(=N)N)NC(=O)[C@H](C)NC(=O)[C@@H](NC(=O)[C@H](CCC(N)=O)NC(=O)[C@H](CCCCN)NC(=O)[C@@H](N)[C@@H](C)O)[C@@H](C)O)C(=O)N[C@@H](CO)C(=O)N[C@H](C(=O)NCC(=O)NCC(=O)N[C@@H](CCCCN)C(=O)N[C@@H](C)C(N)=O)[C@@H](C)O` [H3K9cr], for which the “N (Stoichiometry)” value in experiment [1] is 0.98 ± 0.01.

B1: histone H3K18cr peptide (residues 10–25) (peptide)
peptide: STGGKAPRKQLATKAA
modifications: crotonyllysine (Kcr) at K18
notes: histone H3, residues 10-25; the stretch is the same in H3.1, H3.2 and H3.3; Made on Rink amide resin, so the C-terminus is probably an amide; last residue coupled as N-alpha-Boc amino acid, so the N-terminus is probably free; also called H3K18Kcr; source: synthetic peptide (Fmoc-SPPS on Rink amide resin, RP-HPLC purified)
For the molecule B1, the dissociation constant Kd in experiment [2] was found to be 21 µM.

B2: histone H3K18mea peptide (residues 10–25) (peptide)
peptide: STGGKAPRKQLATKAA
modifications: methacryllysine (Kmea) at K18
notes: histone H3, residues 10-25; the stretch is the same in H3.1, H3.2 and H3.3; Made on Rink amide resin, so the C-terminus is probably an amide; last residue coupled as N-alpha-Boc amino acid, so the N-terminus is probably free; source: synthetic peptide (Fmoc-SPPS on Rink amide resin, RP-HPLC purified)
In the case of B2, the Kd in experiment [2] was 114 µM.

B3: histone H3K9mea peptide (residues 3–15) (peptide)
peptide: TKQTAR[Kmea]STGGKA-NH2
notes: histone H3, residues 3-15; the stretch is the same in H3.1, H3.2 and H3.3; Made on Rink amide resin, so the C-terminus is probably an amide; last residue coupled as N-alpha-Boc amino acid, so the N-terminus is probably free; source: synthetic peptide (Fmoc-SPPS on Rink amide resin, RP-HPLC purified)
For the molecule B3, in experiment [2], the Kd is 59 µM and the “stoichiometry N” value was 1.02.

B4: histone H3K9cr peptide (residues 3–15) (peptide)
peptide: TKQTAR[Kcr]STGGKA-NH2
notes: as for B3
Consider B4, for which, in experiment [2], the Kd is 11 µM and the “stoichiometry N” value was 0.98.

As a reminder, the Kd is the constant that tells how readily two partners part at equilibrium. As a reminder, the stoichiometry N is the number of molecules, sites or subunits per partner or assembly.

The values are drawn from publication PMC10138300, “Molecular Recognition of Methacryllysine and Crotonyllysine by the AF9 YEATS Domain” (International Journal of Molecular Sciences, 2023).
